Results taken from US20140274782A1, “AFFINITY REAGENTS AND METHODS FOR DETECTION, PURIFICATION, AND PROTEOMIC ANALYSIS OF METHYLATED PROTEINS” (The Board of Trustees of the Leland Stanford Junior …, priority 2013, published 2014).

How the values were obtained:
[1] = biological target: SSR4, G9a-methylated (human) (UniProt P51571); test: ProtoArray methylated with G9a SET domain
[2] = biological target: FKBP14, G9a-methylated (human) (UniProt Q9NWM8); test: ProtoArray methylated with G9a SET domain
[3] = biological target: CSF3, G9a-methylated (human) (UniProt P09919); test: ProtoArray methylated with G9a SET domain
[4] = biological target: SNFT, G9a-methylated (human) (UniProt Q9NR55); test: ProtoArray methylated with G9a SET domain
[5] = biological target: DYNC2LI1-dynein, cytoplasmic 2, light intermediate chain 1, mRNA (cDNA clone MGC:12166 IMAGE:3828551), complete cds (human) (UniProt Q8TCX1); test: ProtoArray, GST-treated control array
[6] = biological target: LARP6-La ribonucleoprotein domain family, member 6 (LARP6), transcript variant 2 (human) (UniProt Q9BRS8); test: ProtoArray, GST-treated control array
[7] = biological target: PPARG-peroxisome proliferator-activated receptor gamma (PPARG), transcript variant 4 (human) (UniProt P37231); test: ProtoArray, GST-treated control array
[8] = biological target: T1, TMEM32-transmembrane protein 32 (TMEM32) (human) (UniProt Q8N4V1); test: ProtoArray, GST-treated control array
T1 sequence (looked up): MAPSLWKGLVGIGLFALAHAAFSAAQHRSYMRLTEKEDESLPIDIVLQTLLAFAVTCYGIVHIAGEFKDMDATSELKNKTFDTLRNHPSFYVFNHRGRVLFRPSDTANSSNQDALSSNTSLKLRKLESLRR

[9] = biological target: C1QTNF6-C1q and tumor necrosis factor related protein 6 (C1QTNF6), transcript variant 1 (human) (UniProt Q9BXI9); test: ProtoArray, GST-treated control array
[10] = biological target: CDK10-cyclin-dependent kinase (CDC2-like) 10 (CDK10), transcript variant a (human) (UniProt Q15131); test: ProtoArray, GST-treated control array
[11] = biological target: LPAL2-lipoprotein, Lp(a)-like 2 (LPAL2), transcript variant 1 (human) (UniProt Q16609); test: ProtoArray, GST-treated control array
[12] = biological target: WDR45-WD repeat domain 45 (WDR45), transcript variant 1 (human) (UniProt Q9Y484); test: ProtoArray, GST-treated control array
[13] = biological target: GYPC-glycophorin C (Gerbich blood group) (GYPC), transcript variant 2 (human) (UniProt P04921); test: ProtoArray, GST-treated control array
[14] = biological target: PAEP-progestagen-associated endometrial protein (placental protein 14, pregnancy-associated endometrial alpha-2-globulin, alpha uterine protein), transcript variant 2 (PAEP) (human) (UniProt P09466); test: ProtoArray, GST-treated control array
[15] = biological target: ACSL4-acyl-CoA synthetase long-chain family member 4 (ACSL4), transcript variant 2 (human) (UniProt O60488); test: ProtoArray, GST-treated control array
[16] = biological target: TEAD4-TEA domain family member 4 (TEAD4), transcript variant 3 (human) (UniProt Q15561); test: ProtoArray, GST-treated control array
[17] = biological target: DNTT-deoxynucleotidyltransferase, terminal (DNTT), transcript variant 1 (human) (UniProt P04053); test: ProtoArray, GST-treated control array
[18] = biological target: MRPL21-mitochondrial ribosomal protein L21 (MRPL21), nuclear gene encoding mitochondrial protein, transcript variant 1 (human) (UniProt Q7Z2W9); test: ProtoArray, GST-treated control array
[19] = biological target: ZNF695-zinc finger protein 695 (ZNF695) (human) (UniProt Q8IW36); test: ProtoArray, GST-treated control array
[20] = biological target: AP1S1-adaptor-related protein complex 1, sigma 1 subunit (AP1S1), transcript variant 1 (human) (UniProt P61966); test: ProtoArray, GST-treated control array
[21] = biological target: NME7-non-metastatic cells 7, protein expressed in (nucleoside-diphosphate kinase) (NME7), transcript variant 2 (human) (UniProt Q9Y5B8); test: ProtoArray, GST-treated control array
[22] = biological target: NME1-non-metastatic cells 1, protein (NM23A) expressed in (NME1), transcript variant 2 (human) (UniProt P15531); test: ProtoArray, GST-treated control array
[23] = biological target: CRB3-crumbs homolog 3 (Drosophila) (CRB3), transcript variant 2 (human) (UniProt Q9BUF7); test: ProtoArray, GST-treated control array
[24] = biological target: CALN1-calneuron 1 (CALN1), transcript variant 1 (human) (UniProt Q9BXU9); test: ProtoArray, GST-treated control array
[25] = biological target: RTN1-reticulon 1 (RTN1), transcript variant 3 (human) (UniProt Q16799); test: ProtoArray, GST-treated control array
[26] = biological target: VPS29-vacuolar protein sorting 29 homolog (S. cerevisiae) (VPS29), transcript variant 1 (human) (UniProt Q9UBQ0); test: ProtoArray, GST-treated control array
[27] = biological target: PHF20L1-PHD finger protein 20-like 1 (PHF20L1), transcript variant 3 (human) (UniProt A8MW92); test: ProtoArray, GST-treated control array
[28] = biological target: GPX5-glutathione peroxidase 5 (epididymal androgen-related protein) (GPX5), transcript variant 2, mRNA. (human) (UniProt O75715); test: ProtoArray, GST-treated control array
Sequence of GPX5-glutathione peroxidase 5 (epididymal androgen-related protein) (GPX5), transcript variant 2, mRNA. (human) (O75715 other isoform, or with tags, fused parts or gaps mutant): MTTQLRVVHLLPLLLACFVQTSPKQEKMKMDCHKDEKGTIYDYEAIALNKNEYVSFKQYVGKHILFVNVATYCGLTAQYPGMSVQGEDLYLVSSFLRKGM

Sequence of SSR4, G9a-methylated (human) (P51571 24-173 limits assumed): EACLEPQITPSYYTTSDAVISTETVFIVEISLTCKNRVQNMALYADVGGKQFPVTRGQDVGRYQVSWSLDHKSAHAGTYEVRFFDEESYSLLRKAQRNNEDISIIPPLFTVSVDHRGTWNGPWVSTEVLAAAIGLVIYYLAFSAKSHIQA
Sequence of PHF20L1-PHD finger protein 20-like 1 (PHF20L1), transcript variant 3 (human) (A8MW92 other isoform, or with tags, fused parts or gaps mutant): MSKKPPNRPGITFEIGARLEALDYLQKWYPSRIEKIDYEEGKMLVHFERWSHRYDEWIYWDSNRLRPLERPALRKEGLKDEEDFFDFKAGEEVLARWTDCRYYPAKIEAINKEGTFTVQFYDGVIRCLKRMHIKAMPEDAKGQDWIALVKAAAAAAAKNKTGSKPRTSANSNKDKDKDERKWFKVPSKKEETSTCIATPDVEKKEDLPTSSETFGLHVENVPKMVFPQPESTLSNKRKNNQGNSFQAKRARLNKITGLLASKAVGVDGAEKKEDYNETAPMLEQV
Sequence of NME7-non-metastatic cells 7, protein expressed in (nucleoside-diphosphate kinase) (NME7), transcript variant 2 (human) (Q9Y5B8 37-376, change not shown): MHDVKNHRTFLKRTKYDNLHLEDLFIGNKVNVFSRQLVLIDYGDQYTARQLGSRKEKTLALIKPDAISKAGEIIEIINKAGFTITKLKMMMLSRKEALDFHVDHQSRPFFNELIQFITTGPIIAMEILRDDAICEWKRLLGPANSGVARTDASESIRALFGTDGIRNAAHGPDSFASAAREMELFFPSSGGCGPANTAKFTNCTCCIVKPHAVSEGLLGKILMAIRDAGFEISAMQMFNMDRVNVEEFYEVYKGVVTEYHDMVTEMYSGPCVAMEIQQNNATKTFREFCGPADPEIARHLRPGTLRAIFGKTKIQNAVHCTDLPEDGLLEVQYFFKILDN
Sequence of CSF3, G9a-methylated (human) (P09919 31-207 limits assumed): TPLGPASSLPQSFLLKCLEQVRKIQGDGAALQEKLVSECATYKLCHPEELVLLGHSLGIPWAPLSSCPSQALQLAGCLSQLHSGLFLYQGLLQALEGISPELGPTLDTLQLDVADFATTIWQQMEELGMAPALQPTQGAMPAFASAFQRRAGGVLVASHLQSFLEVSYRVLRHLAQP
Sequence of RTN1-reticulon 1 (RTN1), transcript variant 3 (human) (Q16799 other isoform, or with tags, fused parts or gaps mutant): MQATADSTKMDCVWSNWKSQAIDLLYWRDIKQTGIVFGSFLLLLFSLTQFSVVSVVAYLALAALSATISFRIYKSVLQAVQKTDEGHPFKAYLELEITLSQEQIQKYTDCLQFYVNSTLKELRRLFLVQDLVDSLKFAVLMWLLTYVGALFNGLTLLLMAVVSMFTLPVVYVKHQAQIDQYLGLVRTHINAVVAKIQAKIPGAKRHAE
Sequence of ACSL4-acyl-CoA synthetase long-chain family member 4 (ACSL4), transcript variant 2 (human) (O60488 whole entry, change not shown, the tested form may be a part): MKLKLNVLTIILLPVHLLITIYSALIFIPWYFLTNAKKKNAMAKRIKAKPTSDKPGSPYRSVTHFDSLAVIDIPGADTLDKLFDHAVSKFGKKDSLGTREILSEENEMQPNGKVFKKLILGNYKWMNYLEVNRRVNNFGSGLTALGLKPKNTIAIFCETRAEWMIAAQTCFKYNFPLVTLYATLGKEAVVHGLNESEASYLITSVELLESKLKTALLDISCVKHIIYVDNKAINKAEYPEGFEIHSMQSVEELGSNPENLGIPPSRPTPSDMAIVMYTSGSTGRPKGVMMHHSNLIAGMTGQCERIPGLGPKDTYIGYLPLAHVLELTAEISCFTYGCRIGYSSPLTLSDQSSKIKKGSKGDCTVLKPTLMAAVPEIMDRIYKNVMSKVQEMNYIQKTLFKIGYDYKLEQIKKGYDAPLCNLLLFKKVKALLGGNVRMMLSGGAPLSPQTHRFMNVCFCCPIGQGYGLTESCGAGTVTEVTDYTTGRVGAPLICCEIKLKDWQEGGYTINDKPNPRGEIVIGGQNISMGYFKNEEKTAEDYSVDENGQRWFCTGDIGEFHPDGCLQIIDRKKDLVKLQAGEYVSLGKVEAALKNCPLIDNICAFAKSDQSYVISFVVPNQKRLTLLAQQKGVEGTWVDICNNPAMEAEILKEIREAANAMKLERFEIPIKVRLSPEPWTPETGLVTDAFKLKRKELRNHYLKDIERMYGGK
Sequence of AP1S1-adaptor-related protein complex 1, sigma 1 subunit (AP1S1), transcript variant 1 (human) (P61966 whole entry, change not shown, one chain of several): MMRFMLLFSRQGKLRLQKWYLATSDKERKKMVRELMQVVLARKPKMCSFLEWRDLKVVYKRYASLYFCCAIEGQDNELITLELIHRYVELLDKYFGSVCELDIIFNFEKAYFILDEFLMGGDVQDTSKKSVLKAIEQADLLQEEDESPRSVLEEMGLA
Sequence of FKBP14, G9a-methylated (human) (Q9NWM8 20-211 limits assumed): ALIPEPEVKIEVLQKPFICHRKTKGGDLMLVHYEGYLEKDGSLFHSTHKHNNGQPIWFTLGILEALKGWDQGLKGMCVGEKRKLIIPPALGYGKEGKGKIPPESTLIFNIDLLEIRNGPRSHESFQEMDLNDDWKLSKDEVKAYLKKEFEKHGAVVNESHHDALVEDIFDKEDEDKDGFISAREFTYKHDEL
Sequence of NME1-non-metastatic cells 1, protein (NM23A) expressed in (NME1), transcript variant 2 (human) (P15531 whole entry, change not shown): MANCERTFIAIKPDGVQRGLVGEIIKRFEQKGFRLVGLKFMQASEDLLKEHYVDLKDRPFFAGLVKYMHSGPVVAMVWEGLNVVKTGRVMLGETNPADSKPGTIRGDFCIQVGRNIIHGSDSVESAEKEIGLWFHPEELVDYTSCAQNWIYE
Sequence of CRB3-crumbs homolog 3 (Drosophila) (CRB3), transcript variant 2 (human) (Q9BUF7 27-120, change not shown): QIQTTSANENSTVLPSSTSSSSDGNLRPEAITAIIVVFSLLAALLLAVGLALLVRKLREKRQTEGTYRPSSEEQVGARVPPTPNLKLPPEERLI
Sequence of GYPC-glycophorin C (Gerbich blood group) (GYPC), transcript variant 2 (human) (P04921 other isoform, or with tags, fused parts or gaps mutant): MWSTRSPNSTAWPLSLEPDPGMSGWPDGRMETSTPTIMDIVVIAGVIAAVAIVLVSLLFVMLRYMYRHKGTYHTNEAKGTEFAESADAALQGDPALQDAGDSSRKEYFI
Sequence of TEAD4-TEA domain family member 4 (TEAD4), transcript variant 3 (human) (Q15561 130-434, change not shown): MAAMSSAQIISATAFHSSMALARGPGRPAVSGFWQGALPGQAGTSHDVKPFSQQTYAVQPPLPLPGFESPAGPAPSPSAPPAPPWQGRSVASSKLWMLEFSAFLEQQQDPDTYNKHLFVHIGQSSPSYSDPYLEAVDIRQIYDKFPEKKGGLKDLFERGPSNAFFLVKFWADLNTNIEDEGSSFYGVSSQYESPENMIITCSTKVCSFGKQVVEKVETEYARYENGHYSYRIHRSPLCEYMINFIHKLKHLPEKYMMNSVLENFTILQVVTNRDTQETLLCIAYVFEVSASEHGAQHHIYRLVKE
Sequence of DNTT-deoxynucleotidyltransferase, terminal (DNTT), transcript variant 1 (human) (P04053 whole entry, change not shown): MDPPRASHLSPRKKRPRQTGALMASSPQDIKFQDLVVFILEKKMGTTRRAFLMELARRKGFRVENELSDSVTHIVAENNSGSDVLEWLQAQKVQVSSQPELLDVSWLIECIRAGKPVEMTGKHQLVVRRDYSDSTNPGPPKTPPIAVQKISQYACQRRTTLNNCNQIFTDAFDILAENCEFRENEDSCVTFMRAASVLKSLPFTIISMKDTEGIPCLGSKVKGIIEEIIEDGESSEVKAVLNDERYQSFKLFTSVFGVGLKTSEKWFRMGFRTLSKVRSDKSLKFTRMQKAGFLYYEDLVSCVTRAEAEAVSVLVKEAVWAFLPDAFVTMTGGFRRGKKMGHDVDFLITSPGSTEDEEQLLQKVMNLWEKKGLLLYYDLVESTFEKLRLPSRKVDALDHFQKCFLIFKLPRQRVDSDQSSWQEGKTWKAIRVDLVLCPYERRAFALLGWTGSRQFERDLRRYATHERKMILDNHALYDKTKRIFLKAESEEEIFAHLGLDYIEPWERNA
Sequence of LARP6-La ribonucleoprotein domain family, member 6 (LARP6), transcript variant 2 (human) (Q9BRS8 other isoform, or with tags, fused parts or gaps mutant): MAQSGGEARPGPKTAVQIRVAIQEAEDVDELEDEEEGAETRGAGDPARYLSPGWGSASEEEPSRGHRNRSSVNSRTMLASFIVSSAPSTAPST
Sequence of PAEP-progestagen-associated endometrial protein (placental protein 14, pregnancy-associated endometrial alpha-2-globulin, alpha uterine protein), transcript variant 2 (PAEP) (human) (P09466 19-180, change not shown): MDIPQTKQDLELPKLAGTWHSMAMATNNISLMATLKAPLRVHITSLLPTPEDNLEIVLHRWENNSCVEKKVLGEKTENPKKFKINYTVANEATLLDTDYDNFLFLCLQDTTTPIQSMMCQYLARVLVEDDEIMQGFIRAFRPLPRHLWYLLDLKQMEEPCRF
Sequence of SNFT, G9a-methylated (human) (Q9NR55 whole entry, the tested form may be a part): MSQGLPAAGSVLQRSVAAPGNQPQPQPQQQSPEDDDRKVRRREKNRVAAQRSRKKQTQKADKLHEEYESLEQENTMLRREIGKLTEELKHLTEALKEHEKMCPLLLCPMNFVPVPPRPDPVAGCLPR
Sequence of CDK10-cyclin-dependent kinase (CDC2-like) 10 (CDK10), transcript variant a (human) (Q15131 whole entry, change not shown): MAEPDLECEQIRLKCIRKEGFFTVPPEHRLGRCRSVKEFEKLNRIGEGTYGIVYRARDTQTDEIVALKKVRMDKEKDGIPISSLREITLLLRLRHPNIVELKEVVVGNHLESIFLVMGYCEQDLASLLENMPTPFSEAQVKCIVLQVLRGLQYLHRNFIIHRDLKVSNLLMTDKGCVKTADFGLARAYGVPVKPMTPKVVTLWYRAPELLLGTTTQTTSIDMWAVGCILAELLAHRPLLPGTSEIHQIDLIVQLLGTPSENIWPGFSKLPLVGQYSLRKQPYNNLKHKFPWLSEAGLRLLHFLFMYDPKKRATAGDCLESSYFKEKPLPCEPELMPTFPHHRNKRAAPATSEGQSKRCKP
Sequence of C1QTNF6-C1q and tumor necrosis factor related protein 6 (C1QTNF6), transcript variant 1 (human) (Q9BXI9 47-278, change not shown): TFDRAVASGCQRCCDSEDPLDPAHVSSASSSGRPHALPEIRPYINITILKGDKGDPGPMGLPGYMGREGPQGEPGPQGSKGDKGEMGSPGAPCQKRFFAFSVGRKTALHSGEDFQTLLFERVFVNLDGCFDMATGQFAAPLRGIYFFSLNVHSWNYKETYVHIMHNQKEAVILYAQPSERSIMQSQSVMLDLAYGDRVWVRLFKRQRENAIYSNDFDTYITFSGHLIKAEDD
Sequence of CALN1-calneuron 1 (CALN1), transcript variant 1 (human) (Q9BXU9 whole entry, change not shown): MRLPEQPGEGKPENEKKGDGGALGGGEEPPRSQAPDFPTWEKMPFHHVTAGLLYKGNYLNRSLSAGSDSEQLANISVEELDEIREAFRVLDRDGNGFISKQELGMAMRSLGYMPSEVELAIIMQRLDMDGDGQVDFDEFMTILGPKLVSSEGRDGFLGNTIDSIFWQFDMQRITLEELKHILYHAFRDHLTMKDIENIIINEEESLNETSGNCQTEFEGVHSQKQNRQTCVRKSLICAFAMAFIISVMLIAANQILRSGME

- G9a Average SNR [1]: 14.4
- G9a Average SNR [2]: 15
- G9a Average SNR [3]: 19
- G9a Average SNR [4]: 18.1
- GST Average SNR [5]: -0.778
- GST Average SNR [6]: -1.03
- GST Average SNR [7]: -0.436
- GST Average SNR [8]: 1.5
- GST Average SNR [10]: 0.366
- GST Average SNR [11]: 0.282
- GST Average SNR [12]: 1.35
- GST Average SNR [13]: 0.081
- GST Average SNR [14]: 0.998
- GST Average SNR [15]: 1.41
- GST Average SNR [16]: 0.753
- GST Average SNR [17]: 0.378
- GST Average SNR [18]: 1.41
- GST Average SNR [19]: 1.5
- GST Average SNR [21]: 0.543
- GST Average SNR [22]: 1.06
- GST Average SNR [23]: -0.25
- GST Average SNR [24]: -0.055
- GST Average SNR [25]: 0.954
- GST Average SNR [26]: 1.09
- GST Average SNR [27]: 1.13
- GST Average SNR [28]: -0.0425
Substance: 3× Flag-3×MBT (designed binder)
- GST Average SNR [9]: -0.38
- GST Average SNR [20]: 1.2
